B1: MBP-tagged Mre11-C49 peptide (Mre11 C-terminal residues 644-692) [S. cerevisiae] / HisSUMO-tagged Mer2 [S. cerevisiae] (parent complex)
chain 1: SYGLLNGRKTKTKTRPAASTKTASRRGKGRASRTPKTDILGSLLAKKRK
chain 2: MVARGRTDEISTDVSEANSEHSLMITETSSPFRSIFSHSGKVANAGALEESDKQILEWAGKLELESMELRENSDKLIKVLNENSKTLCKSLNKFNQLLEQDAATNGNVKTLIKDLASQIENQLDKVSTAMLSKGDEKKTKSDSSYRQVLVEEISRYNSKITRHVTNKQHETEKSMRCTQEMLFNVGSQLEDVHKVLLSLSKDMHSLQTRQTALEMAFREKADHAYDRPDVSLNGTTLLHDMDEAHDKQRKKSVPPPRMMVTRSMKRRRSSSPTLSTSQNHNSEDNDDASHRLKRAARTIIPWEELRPDTLESEL

One experiment covers variants of B1. Kind of experiment: co-expression Ni-NTA pulldown, anti-MBP immunoblot quantification; co-expressed in E. coli; at least seven independent samples; parent: 1; read off a plot. On the technique in general: Immunoblotting shows a protein as a band on a membrane.
Regarding chain 1 SYGLLNGRKTKTKTRPAASTKTASRRGKGRASRTPKTDIAGSALAKARK, the ratio to parent is approximately 0.35.

In another experiment the parent is B1. Described as above. The source holds these as a separate data set.
With chain 2 MVARGRTDEISTDVSEANSEHSLMITETSSPFRSIFSHSGKVANAGALEASDKAILAWAGALELESMELRENSDKLIKVLNENSKTLCKSLNKFNQLLEQDAATNGNVKTLIKDLASQIENQLDKVSTAMLSKGDEKKTKSDSSYRQVLVEEISRYNSKITRHVTNKQHETEKSMRCTQEMLFNVGSQLEDVHKVLLSLSKDMHSLQTRQTALEMAFREKADHAYDRPDVSLNGTTLLHDMDEAHDKQRKKSVPPPRMMVTRSMKRRRSSSPTLSTSQNHNSEDNDDASHRLKRAARTIIPWEELRPDTLESEL [chain 2 E50A, chain 2 Q54A, chain 2 E57A, chain 2 K61A], the ratio to parent was approximately 0.26.
